In article doi:10.1101/2025.10.06.680677, “Mechanistic insight into the oligomerisation of Arabidopsis CRY1 and its inhibition by BIC1” (bioRxiv, 2025):

B1: Arabidopsis thaliana CRY1 PHR domain (residues 1-509) (domain or fragment, UniProt Q43125 1-509, looked up)
chain: MSGSVSGCGSGGCSIVWFRRDLRVEDNPALAAAVRAGPVIALFVWAPEEEGHYHPGRVSRWWLKNSLAQLDSSLRSLGTCLITKRSTDSVASLLDVVKSTGASQIFFNHLYDPLSLVRDHRAKDVLTAQGIAVRSFNADLLYEPWEVTDELGRPFSMFAAFWERCLSMPYDPESPLLPPKKIISGDVSKCVADPLVFEDDSEKGSNALLARAWSPGWSNGDKALTTFINGPLLEYSKNRRKADSATTSFLSPHLHFGEVSVRKVFHLVRIKQVAWANEGNEAGEESVNLFLKSIGLREYSRYISFNHPYSHERPLLGHLKFFPWAVDENYFKAWRQGRTGYPLVDAGMRELWATGWLHDRIRVVVSSFFVKVLQLPWRWGMKYFWDTLLDADLESDALGWQYITGTLPDSREFDRIDNPQFEGYKFDPNGEYVRRWLPELSRLPTDWIHHPWNAPESVLQAAGIELGSNYPLPIVGLDEAKARLHEALSQMWQLEAASRAAIENGSEEG
notes: Cryptochrome 1 (CRY1), Arabidopsis thaliana, photolyase homology region (PHR) domain, residues 1-509; Cloned in pACYCDuet-1; Monomer about 59 kDa by LILBID-MS; also called wild-type CRY1; source: E. coli BL21 Star (DE3), purified (Ni-NTA, SEC on Superdex 200)
B3: Arabidopsis thaliana CRY1 PHR domain (residues 1-509) L407F mutant (domain or fragment, UniProt Q43125 1-509, looked up)
chain: MSGSVSGCGSGGCSIVWFRRDLRVEDNPALAAAVRAGPVIALFVWAPEEEGHYHPGRVSRWWLKNSLAQLDSSLRSLGTCLITKRSTDSVASLLDVVKSTGASQIFFNHLYDPLSLVRDHRAKDVLTAQGIAVRSFNADLLYEPWEVTDELGRPFSMFAAFWERCLSMPYDPESPLLPPKKIISGDVSKCVADPLVFEDDSEKGSNALLARAWSPGWSNGDKALTTFINGPLLEYSKNRRKADSATTSFLSPHLHFGEVSVRKVFHLVRIKQVAWANEGNEAGEESVNLFLKSIGLREYSRYISFNHPYSHERPLLGHLKFFPWAVDENYFKAWRQGRTGYPLVDAGMRELWATGWLHDRIRVVVSSFFVKVLQLPWRWGMKYFWDTLLDADLESDALGWQYITGTFPDSREFDRIDNPQFEGYKFDPNGEYVRRWLPELSRLPTDWIHHPWNAPESVLQAAGIELGSNYPLPIVGLDEAKARLHEALSQMWQLEAASRAAIENGSEEG
notes: Cryptochrome 1 (CRY1), Arabidopsis thaliana, PHR domain, residues 1-509, with L407F; Cloned in pACYCDuet-1; also called CRY1^L407F; constitutively active CRY1; source: E. coli BL21 Star (DE3), purified (Ni-NTA, SEC on Superdex 200)

Legend:
[1] = molecular target: the molecule itself; experiment: native MS; time-resolved nESI-MS, 10 scans per second, CRY1 15 µM, blue light, room temperature, no ATP; reversible two-step model (monomer to dimer, dimer to tetramer) fitted with DynaFit
[2] = molecular target: the molecule itself; experiment: native MS; LILBID-MS, under blue light (455 nm LED, 100 µmol m-2 s-1), 20 °C, 200 mM ammonium acetate, 10 mM DTT, pH 7.4; BIC1 equimolar, added before illumination or to pre-illuminated tetrameric CRY1
[3] = molecular target: the molecule itself; experiment: native MS; time-resolved nESI-MS, CRY1 15 µM, blue light, room temperature, with 100 µM ATP; reversible two-step model (monomer to dimer, dimer to tetramer)
[4] = molecular target: B1; experiment: native MS; quantitative LILBID-MS (qLILBID-MS), label-free, under blue light; KD from dissociation plots; conditions: both partners purified
[5] = molecular target: B3; experiment: native MS; quantitative LILBID-MS (qLILBID-MS), label-free, in the dark; KD from dissociation plots; conditions: both partners purified
[6] = molecular target: B1; experiment: as above; conditions: both partners purified
[7] = molecular target: the molecule itself; experiment: SEC; analytical SEC, Superdex 200 10/300 GL, 10 °C, 30 µM protein, ß-mercaptoethanol, kept in darkness (red safe light)
[8] = molecular target: the molecule itself; experiment: not stated; wild-type BIC1, disulfide bond-mediated dimerization (Extended Data Fig. 5a, b); method not given

Q: Which “half-life of tetramer formation (single-exponential fit)” value [1] does the source give for B1 here?
A: ~18 s

Q: What about the “stoichiometry N” value [2] of the same binder?
A: 4

Q: What about the “fold change of the rate of tetramer formation with 100 µM ATP against no ATP” value [3] of the same binder?
A: ~4 fold

Q: And the “fold slowing of dimer dissociation with 100 µM ATP against no ATP” value [3]?
A: > 10 fold

Q: What about the “fold slowing of tetramer dissociation with 100 µM ATP against no ATP” value [3] of the same binder?
A: ~2 fold

B2: Blue-light Inhibitor of Cryptochromes 1 (BIC1) triple mutant C99A, C105A, C136A (natural protein, Arabidopsis thaliana, UniProt Q9LXJ1 1-140, looked up)
chain: MMNIDDTTSPMAHPIGPSQPPSDQTKQDPPSLPQEAASSVSADKKDLALLEEKPKQSQEEDRVDTGRERLKKHRREIAGRVWIPEIWGQEELLKDWIDASTFDTALVPAGISSARTALVEEARRAASASGGLHNRALILR
notes: BIC1, Arabidopsis thaliana, synthetic gene with three cysteine-to-alanine substitutions; Cloned in pET28a(+) (BioCat GmbH); About 20 kDa by LILBID-MS; also called BIC1^3CA; source: E. coli BL21 Star (DE3), purified (Ni-NTA, SEC on Superdex 75)
Q: How did the Kd [4] turn out when B2 was run?
A: 130 ± 90 nM

Q: And the Kd [5]?
A: 100 ± 30 nM

Q: And the Kd [6]?
A: ~1200 nM

Q: For B3, which “stoichiometry N” value [7] is on record?
A: 4

B4: Arabidopsis thaliana wild-type BIC1 protein (natural protein, UniProt Q9LXJ1 1-140, looked up)
chain: MMNIDDTTSPMAHPIGPSQPPSDQTKQDPPSLPQEAASSVSADKKDLALLEEKPKQSQEEDRVDTGRERLKKHRREIAGRVWIPEIWGQEELLKDWIDCSTFDTCLVPAGISSARTALVEEARRAASASGGLHNRCLILR
notes: BIC1, Arabidopsis thaliana, wild type with its cysteines; The construct and its host are not described; the methods say in general that recombinant proteins carried an N-terminal His6-tag; The dimer is held by disulfide bonds
Q: For B4, which “stoichiometry N” value [8] is on record?
A: 2
